Experimental data as given in US20150307585A1 (published 2015).

Assays:
[1] = molecular target: T1, RAC1 P29S (Ras-related C3 botulinum toxin substrate 1) peptide on HLA-A*02:01 (human); experiment: cytokine release
T1 peptide: FSGEYIPTV

[2] = molecular target: T1, RAC1 P29S (Ras-related C3 botulinum …); experiment: multimer staining

Row | Binder | binding result [1] | binding result [2]
1 | T1 (TCR, V domains shown) Valpha: EDQVTQSPEALRLQEGESSSLNCSYTVSGLRGLFWYRQDPGKGPEFLFTLYSAGEEKEKERLKATLTKKESFLHITAPKPEDSATYLCAVQTSQGGSEKLVFGKGTKLTVNP Vbeta: DTEVTQTPKHLVMGMTNKKSLKCEQHMGHRAMYWYKQKAKKPPELMFVYSYEKLSINESVPSRFSPECPNSSLLNLHLHALQPEDSALYLCASSQDASGIYYEQYFGPGTRLTVT | recognises | 
2 | T3/T4, chain combination TRAV5/TRBV20-1 (TCR, V domains shown) Valpha: GEDVEQSLFLSVREGDSSVINCTYTDSSSTYLYWYKQEPGAGLQLLTYIFSNMDMKQDQRLTVLLNKKDKHLSLRIADTQTGDSAIYFCAESKRFSDGQKLLFARGTMLKVDL Vbeta: GAVVSQHPSWVICKSGTSVKIECRSLDFQATTMFWYRQFPKQSLMLMATSNEGSKATYEQGVEKDKFLINHASLTLSTLTVTSAHPEDSSFYICSARDLITDTQYFGPGTRLTVL |  | recognises
3 | T5 (TCR, V domains shown) Valpha: GENVEQHPSTLSVQEGDSAVIKCTYSDSASNYFPWYKQELGKGPQLIIDIRSNVGEKKDQRIAVTLNKTAKHFSLHITETQPEDSAVYFCAASLGSGNTPLVFGKGTRLSVIA Vbeta: DVKVTQSSRYLVKRTGEKVFLECVQDMDHENMFWYRQDPGLGLRLIYFSYDVKMKEKGDIPEGYSVSREKKERFSLILESASTNQTSMYLCASSLHSGRDTQYFGPGTRLTVL |  | recognises
4 | T2 (TCR, V domains shown) Valpha: GENVEQHPSTLSVQEGDSAVIKCTYSDSASNYFPWYKQELGKGPQLIIDIRSNVGEKKDQRIAVTLNKTAKHFSLHITETQPEDSAVYFCAASRGGAQKLVFGQGTRLTINP Vbeta: DTAVSQTPKYLVTQMGNDKSIKCEQNLGHDTMYWYKQDSKKFLKIMFSYNNKELIINETVPNRFSPKSPDKAHLNLHINSLELGDSAVYFCASSQLAGGPLYNEQFFGPGTRLTVL | recognises | 
5 | T6 (TCR, V domains shown) Valpha: GESVGLHLPTLSVQEGDNSIINCAYSNSASDYFIWYKQESGKGPQFIIDIRSNMDKRQGQRVTVLLNKTVKHLSLQIAATQPGDSAVYFCAENRGANSKLTFGKGITLSVRP Vbeta: DAGVIQSPRHEVTEMGQEVTLRCKPISGHNSLFWYRQTMMRGLELLIYFNNNVPIDDSGMPEDRFSAKMPNASFSTLKIQPSEPRDSAVYFCASSFTGGFYGYTFGSGTRLTVV |  | recognises
